± gives the standard deviation of the averaged measurements.
Assay: total protein half-life in vivo (active degradation + dilution); higher = more stable protein
[1] = E. coli NCM3722 delta-clpP, growth: N-lim chemostat, doubling time 6 h
[2] = E. coli NCM3722 delta-hslV, growth: N-lim chemostat, doubling time 6 h
[3] = E. coli NCM3722 delta-lon, growth: N-lim chemostat, doubling time 6 h
[4] = E. coli NCM3722 delta-smpB, growth: N-lim chemostat, doubling time 6 h
[5] = wild type E. coli NCM3722, growth: C-lim chemostat, doubling time 3 h
[6] = wild type E. coli NCM3722, growth: C-lim chemostat, doubling time 6 h
[7] = wild type E. coli NCM3722, growth: C-lim chemostat, doubling time 12 h
[8] = wild type E. coli NCM3722, growth: N-lim chemostat, doubling time 6 h
[9] = wild type E. coli NCM3722, growth: N-lim chemostat, doubling time 12 h
[10] = wild type E. coli NCM3722, growth: P-lim chemostat, doubling time 6 h
[11] = wild type E. coli NCM3722, growth: P-lim chemostat, doubling time 12 h
[12] = E. coli NCM3722 delta-clpP delta-lon delta-hslV, growth: N-lim chemostat, doubling time 6 h

| Sequence | total protein half-life in vivo [1] [h] | total protein half-life in vivo [2] [h] | total protein half-life in vivo [3] [h] | total protein half-life in vivo [4] [h] | total protein half-life in vivo [5] [h] | total protein half-life in vivo [6] [h] | total protein half-life in vivo [7] [h] | total protein half-life in vivo [8] [h] | total protein half-life in vivo [9] [h] | total protein half-life in vivo [10] [h] | total protein half-life in vivo [11] [h] | total protein half-life in vivo [12] [h] |
| --- | --- | --- | --- | --- | --- | --- | --- | --- | --- | --- | --- | --- |
| MRYIRQLCCVSLLCLSGSAVAANVRLQVEGLSGQLEKNVRAQLSTIESDEVTPDRRFRARVDDAIREGLKALGYYQPTIEFDLRPPPKKGRQVLIAKVTPGVPVLIGGTDVVLRGGARTDKDYLKLLDTRPAIGTVLNQGDYENFKKSLTSIALRKGYFDSEFTKAQLGIALGLHKAFWDIDYNSGERYRFGHVTFEGSQIRDEYLQNLVPFKEGDEYESKDLAELNRRLSATGWFNSVVVAPQFDKARETKVLPLTGVVSPRTENTIETGVGYSTDVGPRVKATWKKPWMNSYGHSLTTSTSISAPEQTLDFSYKMPLLKNPLEQYYLVQGGFKRTDLNDTESDSTTLVASRYWDLSSGWQRAINLRWSLDHFTQGEITNTTMLFYPGVMISRTRSRGGLMPTWGDSQRYSIDYSNTAWGSDVDFSVFQAQNVWIRTLYDRHRFVTRGTLGWIETGDFDKVPPDLRFFAGGDRSIRGYKYKSIAPKYANGDLKGASKLITGSLEYQYNVTGKWWGAVFVDSGEAVSDIRRSDFKTGTGVGVRWESPVGPIKLDFAVPVADKDEHGLQFYIGLGPEL [P0ADE4] | 6.81 ± 0.13 | 6.538 ± 0.011 | 6.38 ± 0.61 | 5.85 ± 0.15 | 3.013 ± 0.0066 | 6.21 ± 0.37 | 12.8 ± 0.55 | 6.59 ± 1 | 13.5 ± 0.56 | 6.31 ± 0.16 | 13.8 ± 0.96 | – |
| MTTPLKKIVIVGGGAGGLEMATQLGHKLGRKKKAKITLVDRNHSHLWKPLLHEVATGSLDEGVDALSYLAHARNHGFQFQLGSVIDIDREAKTITIAELRDEKGELLVPERKIAYDTLVMALGSTSNDFNTPGVKENCIFLDNPHQARRFHQEMLNLFLKYSANLGANGKVNIAIVGGGATGVELSAELHNAVKQLHSYGYKGLTNEALNVTLVEAGERILPALPPRISAAAHNELTKLGVRVLTQTMVTSADEGGLHTKDGEYIEADLMVWAAGIKAPDFLKDIGGLETNRINQLVVEPTLQTTRDPDIYAIGDCASCPRPEGGFVPPRAQAAHQMATCAMNNILAQMNGKPLKNYQYKDHGSLVSLSNFSTVGSLMGNLTRGSMMIEGRIARFVYISLYRMHQIALHGYFKTGLMMLVGSINRVIRPRLKLH | 6.87 ± 1.2 | 6.08 ± 0.085 | 6.332 ± 0.062 | 5.82 ± 0.36 | 3.15 ± 0.057 | – | 11.78 ± 0.097 | 6.12 ± 0.28 | 12.7 ± 0.44 | 6.07 ± 0.096 | 14.2 ± 0.38 | 6.51 ± 0.53 |
| MANELTWHDVLAEEKQQPYFLNTLQTVASERQSGVTIYPPQKDVFNAFRFTELGDVKVVILGQDPYHGPGQAHGLAFSVRPGIAIPPSLLNMYKELENTIPGFTRPNHGYLESWARQGVLLLNTVLTVRAGQAHSHASLGWETFTDKVISLINQHREGVVFLLWGSHAQKKGAIIDKQRHHVLKAPHPSPLSAHRGFFGCNHFVLANQWLEQRGETPIDWMPVLPAESE | 5.184 ± 0.029 | 5.26 ± 0.17 | 5.24 ± 0.29 | 5.6 ± 0.28 | 3.1 ± 0.099 | 5.17 ± 0.19 | 11.2 ± 2.4 | 4.89 ± 0.42 | 10.6 ± 0.65 | 5.97 ± 0.092 | – | – |
| MAEFPASLLILNGKSTDNLPLREAIMLLREEGMTIHVRVTWEKGDAARYVEEARKFGVATVIAGGGDGTINEVSTALIQCEGDDIPALGILPLGTANDFATSVGIPEALDKALKLAIAGDAIAIDMAQVNKQTCFINMATGGFGTRITTETPEKLKAALGSVSYIIHGLMRMDTLQPDRCEIRGENFHWQGDALVIGIGNGRQAGGGQQLCPNALINDGLLQLRIFTGDEILPALVSTLKSDEDNPNIIEGASSWFDIQAPHDITFNLDGEPLSGQNFHIEILPAALRCRLPPDCPLLR | 4.23 ± 0.21 | 3.94 ± 0.33 | 4.69 ± 0.069 | 4.31 ± 0.74 | 3.19 ± 0.41 | 5.73 ± 0.4 | 9.08 ± 0.56 | 4.51 ± 0.3 | 7.91 ± 0.14 | 5.17 ± 0.48 | 9.75 ± 0.16 | 5 ± 0.044 |
| MKTLATIGDNCVDIYPQLNKAFSGGNAVNVAVYCTRYGIQPGCITWVGDDDYGTKLKQDLARMGVDISHVHTKHGVTAQTQVELHDNDRVFGDYTEGVMADFALSEEDYAWLAQYDIVHAAIWGHAEDAFPQLHAAGKLTAFDFSDKWDSPLWQTLVPHLDFAFASAPQEDETLRLKMKAIVARGAGTVIVTLGENGSIAWDGAQFWRQAPEPVTVIDTMGAGDSFIAGFLCGWSAGMTLPQAIAQGTACAAKTIQYHGAW | 3.97 | 4.2 ± 0.26 | > 8 | 3.48 | 1.68 | 3.27 | 7.21 ± 0.47 | – | – | – | – | 5.37 |
| MKAFWRNAALLAVSLLPFSSANALALQAKQYGDFDRYVLALSWQTGFCQSQHDRNRNERDECRLQTETTNKADFLTVHGLWPGLPKSVAARGVDERRWMRFGCATRPIPNLPEARASRMCSSPETGLSLETAAKLSEVMPGAGGRSCLERYEYAKHGACFGFDPDAYFGTMVRLNQEIKESEAGKFLADNYGKTVSRRDFDAAFAKSWGKENVKAVKLTCQGNPAYLTEIQISIKADAINAPLSANSFLPQPHPGNCGKTFVIDKAGY | – | 6.73 ± 0.69 | 6.91 ± 0.17 | 5.96 ± 0.5 | 2.91 ± 0.23 | 6.59 ± 1.8 | – | 5.72 ± 0.6 | 12.8 ± 0.28 | 5.74 ± 0.09 | – | 5.86 ± 0.29 |
| MSTVTITDLARENVRNLTPYQSARRLGGNGDVWLNANEYPTAVEFQLTQQTLNRYPECQPKAVIENYAQYAGVKPEQVLVSRGADEGIELLIRAFCEPGKDAILYCPPTYGMYSVSAETIGVECRTVPTLDNWQLDLQGISDKLDGVKVVYVCSPNNPTGQLINPQDFRTLLELTRGKAIVVADEAYIEFCPQASLAGWLAEYPHLAILRTLSKAFALAGLRCGFTLANEEVINLLMKVIAPYPLSTPVADIAAQALSPQGIVAMRERVAQIIAEREYLIAALKEIPCVEQVFDSETNYILARFKASSAVFKSLWDQGIILRDQNKQPSLSGCLRITVGTREESQRVIDALRAEQV | 3.15 ± 0.066 | 3.41 ± 0.045 | 3.73 ± 0.54 | 3.535 ± 0.032 | 3.02 ± 0.27 | 5.38 ± 0.12 | 9.87 ± 1.3 | 3.247 ± 0.012 | 4.98 ± 0.15 | 5.32 ± 0.39 | 10.9 ± 0.23 | 3.92 ± 0.55 |
